Data from patent publication US20140072613A1, “Compositions and Methods for Treating Cutaneous Scarring” (priority 2012, published 2014).

What was measured:
[1] = biological target: Vasoactive intestinal peptide (off-target receptor); assay: Cerep binding assay, competition with a radiolabelled ligand
[2] = biological target: Angiotensin 2 (off-target receptor); assay: as above
[3] = biological target: Neuropeptide Y (off-target receptor); assay: as above
[4] = biological target: Serotonin 2A (off-target receptor) (Homo sapiens (Human)), P28223; assay: as above
[5] = biological target: Bombesin (off-target receptor); assay: as above
[6] = biological target: Melanocortin 4 (off-target receptor) (Homo sapiens (Human)), P32245; assay: as above
[7] = biological target: T1, Neurokinin 2 (off-target receptor) (Homo sapiens (Human)), P21452; assay: as above
T1 chain: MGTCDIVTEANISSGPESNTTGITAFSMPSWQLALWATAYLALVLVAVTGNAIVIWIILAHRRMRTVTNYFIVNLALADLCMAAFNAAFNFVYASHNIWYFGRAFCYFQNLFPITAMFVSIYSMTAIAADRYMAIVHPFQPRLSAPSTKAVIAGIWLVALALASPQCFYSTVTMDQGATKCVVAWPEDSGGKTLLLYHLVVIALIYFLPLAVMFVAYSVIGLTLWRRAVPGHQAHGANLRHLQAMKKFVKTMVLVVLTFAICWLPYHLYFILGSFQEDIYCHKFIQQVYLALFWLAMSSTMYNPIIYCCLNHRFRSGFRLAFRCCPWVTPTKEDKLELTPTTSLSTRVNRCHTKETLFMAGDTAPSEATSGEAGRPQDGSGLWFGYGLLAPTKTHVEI

[8] = biological target: Small conductance calcium activated K+ channel; assay: as above
EphA2(h) (human), P29317 = biological target: T2, EphA2(h) (human), P29317; assay: cell-based or functional assay
T2 chain: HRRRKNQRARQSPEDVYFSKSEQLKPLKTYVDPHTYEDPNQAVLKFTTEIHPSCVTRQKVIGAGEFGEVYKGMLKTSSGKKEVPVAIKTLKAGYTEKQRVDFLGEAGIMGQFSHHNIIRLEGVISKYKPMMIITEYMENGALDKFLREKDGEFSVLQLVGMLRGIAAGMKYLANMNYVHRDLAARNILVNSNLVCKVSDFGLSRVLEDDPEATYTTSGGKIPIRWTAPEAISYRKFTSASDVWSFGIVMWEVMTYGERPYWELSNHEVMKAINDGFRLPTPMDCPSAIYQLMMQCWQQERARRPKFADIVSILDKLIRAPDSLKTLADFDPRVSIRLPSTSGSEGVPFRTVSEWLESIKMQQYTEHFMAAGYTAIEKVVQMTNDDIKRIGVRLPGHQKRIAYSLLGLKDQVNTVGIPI

LOK(h) (human), O94804 = assay: cell-based or functional assay
Yes(h) (human), P07947 = assay: cell-based or functional assay
[9] = biological target: CaMKIδ(h) (human), Q8IU85; assay: cell-based or functional assay
Chain of CaMKIδ(h) (human), Q8IU85 (Q8IU85 whole entry, stated change not applied): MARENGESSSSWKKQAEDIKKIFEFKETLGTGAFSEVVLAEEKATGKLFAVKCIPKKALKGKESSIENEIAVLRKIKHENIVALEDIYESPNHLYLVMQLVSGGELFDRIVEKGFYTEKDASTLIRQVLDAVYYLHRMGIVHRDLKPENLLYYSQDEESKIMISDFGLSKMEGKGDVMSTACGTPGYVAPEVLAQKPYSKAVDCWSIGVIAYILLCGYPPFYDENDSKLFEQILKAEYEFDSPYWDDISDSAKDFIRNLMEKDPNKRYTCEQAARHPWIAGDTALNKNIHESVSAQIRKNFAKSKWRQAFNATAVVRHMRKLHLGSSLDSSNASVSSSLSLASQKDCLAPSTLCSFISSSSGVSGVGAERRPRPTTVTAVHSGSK

[10] = biological target: EGFR(L861Q)(h) (human), P00533; assay: cell-based or functional assay
DRAK1(h) (human), Q9UEE5 = biological target: T3, DRAK1(h) (human), Q9UEE5; assay: cell-based or functional assay
T3 chain: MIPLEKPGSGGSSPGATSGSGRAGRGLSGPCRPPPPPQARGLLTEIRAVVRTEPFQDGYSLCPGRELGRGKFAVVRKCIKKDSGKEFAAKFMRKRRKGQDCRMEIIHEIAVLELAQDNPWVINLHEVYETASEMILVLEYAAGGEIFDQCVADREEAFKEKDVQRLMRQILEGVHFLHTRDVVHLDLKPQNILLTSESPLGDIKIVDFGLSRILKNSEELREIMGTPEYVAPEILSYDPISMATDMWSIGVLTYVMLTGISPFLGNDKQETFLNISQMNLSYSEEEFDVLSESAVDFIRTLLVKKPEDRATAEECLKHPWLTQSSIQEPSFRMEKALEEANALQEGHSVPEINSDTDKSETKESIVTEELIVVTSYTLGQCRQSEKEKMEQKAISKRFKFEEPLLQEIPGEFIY

[11] = biological target: MAPKAP-K3(h) (human), Q16644; assay: cell-based or functional assay
Fes(h) (human), P07332 = assay: cell-based or functional assay
FGFR2(h) (human), P21802 = biological target: T4, FGFR2(h) (human), P21802; assay: cell-based or functional assay
T4 chain: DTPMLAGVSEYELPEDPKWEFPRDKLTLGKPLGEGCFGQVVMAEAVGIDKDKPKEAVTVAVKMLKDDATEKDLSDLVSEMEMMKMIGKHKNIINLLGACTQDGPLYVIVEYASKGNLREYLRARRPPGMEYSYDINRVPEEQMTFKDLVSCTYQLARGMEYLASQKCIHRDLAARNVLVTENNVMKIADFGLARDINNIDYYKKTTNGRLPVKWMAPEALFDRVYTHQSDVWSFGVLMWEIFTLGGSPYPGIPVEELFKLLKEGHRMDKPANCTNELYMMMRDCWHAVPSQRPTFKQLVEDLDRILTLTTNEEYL

[12] = biological target: MAPKAP-K2(h) (human), P49137; assay: cell-based or functional assay
DMPK(h) (human), Q09013 = biological target: T5, DMPK(h) (human), Q09013; assay: cell-based or functional assay
T5 chain: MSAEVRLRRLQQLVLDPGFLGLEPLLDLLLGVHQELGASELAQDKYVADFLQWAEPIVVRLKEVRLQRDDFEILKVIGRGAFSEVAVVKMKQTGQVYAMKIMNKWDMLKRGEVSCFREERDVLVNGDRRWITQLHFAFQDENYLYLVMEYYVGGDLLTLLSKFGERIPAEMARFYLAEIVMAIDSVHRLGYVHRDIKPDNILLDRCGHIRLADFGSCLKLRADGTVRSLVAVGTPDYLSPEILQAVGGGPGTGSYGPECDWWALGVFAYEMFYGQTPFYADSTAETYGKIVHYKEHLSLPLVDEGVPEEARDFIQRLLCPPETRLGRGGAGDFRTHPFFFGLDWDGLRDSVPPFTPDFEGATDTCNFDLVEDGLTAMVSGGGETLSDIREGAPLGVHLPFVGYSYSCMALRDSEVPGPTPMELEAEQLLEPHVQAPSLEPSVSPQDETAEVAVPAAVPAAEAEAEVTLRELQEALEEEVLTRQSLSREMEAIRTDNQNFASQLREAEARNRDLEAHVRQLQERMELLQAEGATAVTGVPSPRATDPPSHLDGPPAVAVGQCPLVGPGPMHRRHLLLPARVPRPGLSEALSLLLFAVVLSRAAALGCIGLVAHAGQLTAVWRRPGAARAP

Pim-1(h) (human), P11309 = assay: cell-based or functional assay
Chain of Pim-1(h) (human), P11309 (P11309 whole entry): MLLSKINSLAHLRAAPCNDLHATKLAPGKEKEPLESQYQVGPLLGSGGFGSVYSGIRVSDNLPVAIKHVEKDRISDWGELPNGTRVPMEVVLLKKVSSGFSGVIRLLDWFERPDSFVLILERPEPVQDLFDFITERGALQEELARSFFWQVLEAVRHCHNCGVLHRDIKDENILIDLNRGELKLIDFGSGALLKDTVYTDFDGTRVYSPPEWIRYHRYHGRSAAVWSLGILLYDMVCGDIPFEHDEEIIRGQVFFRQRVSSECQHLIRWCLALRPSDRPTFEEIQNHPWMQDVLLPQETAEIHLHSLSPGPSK

TrkB(h) (human), Q16620 = assay: cell-based or functional assay
Fgr(h) (human), P09769 = assay: cell-based or functional assay
MSK1(h) (human), O75582 = assay: cell-based or functional assay
Chain of MSK1(h) (human), O75582 (O75582 whole entry): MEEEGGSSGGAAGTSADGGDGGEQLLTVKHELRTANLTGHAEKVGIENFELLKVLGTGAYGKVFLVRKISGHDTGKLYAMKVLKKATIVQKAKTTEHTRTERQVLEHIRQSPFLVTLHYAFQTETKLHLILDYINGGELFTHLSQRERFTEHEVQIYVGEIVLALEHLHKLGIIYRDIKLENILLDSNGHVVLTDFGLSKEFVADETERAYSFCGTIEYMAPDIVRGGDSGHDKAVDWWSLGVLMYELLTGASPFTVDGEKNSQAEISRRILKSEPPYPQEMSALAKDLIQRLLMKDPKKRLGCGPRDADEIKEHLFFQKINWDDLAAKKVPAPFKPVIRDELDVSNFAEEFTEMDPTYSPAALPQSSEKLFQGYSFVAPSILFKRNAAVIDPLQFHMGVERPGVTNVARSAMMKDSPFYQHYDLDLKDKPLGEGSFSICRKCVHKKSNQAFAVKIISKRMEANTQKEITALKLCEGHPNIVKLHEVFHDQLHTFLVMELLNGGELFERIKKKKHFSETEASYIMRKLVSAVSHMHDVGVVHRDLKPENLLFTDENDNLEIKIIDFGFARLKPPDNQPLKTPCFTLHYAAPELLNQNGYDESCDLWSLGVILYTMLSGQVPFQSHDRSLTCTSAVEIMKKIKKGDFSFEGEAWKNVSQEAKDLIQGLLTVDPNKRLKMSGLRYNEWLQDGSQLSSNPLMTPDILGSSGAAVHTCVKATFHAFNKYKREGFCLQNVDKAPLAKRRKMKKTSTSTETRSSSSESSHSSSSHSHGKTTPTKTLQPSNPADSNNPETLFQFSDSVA

CaMKI(h) (human), Q14012 = assay: cell-based or functional assay
CK1δ(h) (human), P48730 = assay: cell-based or functional assay
Chain of CK1δ(h) (human), P48730 (P48730 1-294, stated change not applied): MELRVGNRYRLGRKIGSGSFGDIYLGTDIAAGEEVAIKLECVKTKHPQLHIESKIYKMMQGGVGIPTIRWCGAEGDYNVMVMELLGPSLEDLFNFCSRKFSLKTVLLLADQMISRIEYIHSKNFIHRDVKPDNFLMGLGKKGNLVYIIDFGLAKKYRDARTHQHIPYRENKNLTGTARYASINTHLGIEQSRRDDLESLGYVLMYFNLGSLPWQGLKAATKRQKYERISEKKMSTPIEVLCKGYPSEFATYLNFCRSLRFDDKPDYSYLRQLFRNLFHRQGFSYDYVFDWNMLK

[13] = biological target: CaMKIIδ(h) (human), Q13557; assay: cell-based or functional assay
Chain of CaMKIIδ(h) (human), Q13557 (Q13557 whole entry, stated change not applied): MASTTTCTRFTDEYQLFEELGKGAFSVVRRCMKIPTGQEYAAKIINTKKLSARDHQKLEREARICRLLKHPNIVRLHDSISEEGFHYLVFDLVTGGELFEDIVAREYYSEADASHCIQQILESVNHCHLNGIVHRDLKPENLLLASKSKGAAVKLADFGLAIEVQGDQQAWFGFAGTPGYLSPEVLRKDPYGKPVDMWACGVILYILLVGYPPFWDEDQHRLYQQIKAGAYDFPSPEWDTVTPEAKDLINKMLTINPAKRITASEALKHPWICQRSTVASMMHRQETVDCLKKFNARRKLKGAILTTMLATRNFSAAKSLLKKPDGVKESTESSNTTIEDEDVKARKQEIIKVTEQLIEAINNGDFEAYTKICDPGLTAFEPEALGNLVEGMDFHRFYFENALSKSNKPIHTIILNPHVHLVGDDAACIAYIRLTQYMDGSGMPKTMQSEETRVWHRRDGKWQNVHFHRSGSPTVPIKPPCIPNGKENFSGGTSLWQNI

PKG1α(h) (human), Q13976 = assay: cell-based or functional assay
Chain of PKG1α(h) (human), Q13976 (Q13976 whole entry): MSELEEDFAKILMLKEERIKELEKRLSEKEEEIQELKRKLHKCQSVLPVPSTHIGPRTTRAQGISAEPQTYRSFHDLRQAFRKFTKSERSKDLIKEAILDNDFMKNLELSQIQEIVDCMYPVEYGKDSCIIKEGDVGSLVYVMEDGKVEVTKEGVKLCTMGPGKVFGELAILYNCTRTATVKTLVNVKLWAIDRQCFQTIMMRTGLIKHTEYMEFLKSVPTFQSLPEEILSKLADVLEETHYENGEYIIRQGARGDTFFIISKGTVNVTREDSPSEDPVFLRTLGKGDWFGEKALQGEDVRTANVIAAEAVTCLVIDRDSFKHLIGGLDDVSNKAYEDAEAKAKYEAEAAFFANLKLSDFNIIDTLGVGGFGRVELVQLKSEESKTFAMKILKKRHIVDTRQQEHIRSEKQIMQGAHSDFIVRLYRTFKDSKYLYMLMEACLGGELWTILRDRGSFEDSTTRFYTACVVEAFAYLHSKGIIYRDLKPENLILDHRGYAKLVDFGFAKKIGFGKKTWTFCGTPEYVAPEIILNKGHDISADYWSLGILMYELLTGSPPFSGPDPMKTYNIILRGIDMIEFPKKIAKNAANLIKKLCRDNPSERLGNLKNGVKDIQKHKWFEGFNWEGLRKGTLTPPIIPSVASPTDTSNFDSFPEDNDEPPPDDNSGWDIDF

[14] = biological target: Abl(H8396P)(h) (human), P00519; assay: cell-based or functional assay
Chain of Abl(H8396P)(h) (human), P00519 (P00519 27-1130, stated change not applied): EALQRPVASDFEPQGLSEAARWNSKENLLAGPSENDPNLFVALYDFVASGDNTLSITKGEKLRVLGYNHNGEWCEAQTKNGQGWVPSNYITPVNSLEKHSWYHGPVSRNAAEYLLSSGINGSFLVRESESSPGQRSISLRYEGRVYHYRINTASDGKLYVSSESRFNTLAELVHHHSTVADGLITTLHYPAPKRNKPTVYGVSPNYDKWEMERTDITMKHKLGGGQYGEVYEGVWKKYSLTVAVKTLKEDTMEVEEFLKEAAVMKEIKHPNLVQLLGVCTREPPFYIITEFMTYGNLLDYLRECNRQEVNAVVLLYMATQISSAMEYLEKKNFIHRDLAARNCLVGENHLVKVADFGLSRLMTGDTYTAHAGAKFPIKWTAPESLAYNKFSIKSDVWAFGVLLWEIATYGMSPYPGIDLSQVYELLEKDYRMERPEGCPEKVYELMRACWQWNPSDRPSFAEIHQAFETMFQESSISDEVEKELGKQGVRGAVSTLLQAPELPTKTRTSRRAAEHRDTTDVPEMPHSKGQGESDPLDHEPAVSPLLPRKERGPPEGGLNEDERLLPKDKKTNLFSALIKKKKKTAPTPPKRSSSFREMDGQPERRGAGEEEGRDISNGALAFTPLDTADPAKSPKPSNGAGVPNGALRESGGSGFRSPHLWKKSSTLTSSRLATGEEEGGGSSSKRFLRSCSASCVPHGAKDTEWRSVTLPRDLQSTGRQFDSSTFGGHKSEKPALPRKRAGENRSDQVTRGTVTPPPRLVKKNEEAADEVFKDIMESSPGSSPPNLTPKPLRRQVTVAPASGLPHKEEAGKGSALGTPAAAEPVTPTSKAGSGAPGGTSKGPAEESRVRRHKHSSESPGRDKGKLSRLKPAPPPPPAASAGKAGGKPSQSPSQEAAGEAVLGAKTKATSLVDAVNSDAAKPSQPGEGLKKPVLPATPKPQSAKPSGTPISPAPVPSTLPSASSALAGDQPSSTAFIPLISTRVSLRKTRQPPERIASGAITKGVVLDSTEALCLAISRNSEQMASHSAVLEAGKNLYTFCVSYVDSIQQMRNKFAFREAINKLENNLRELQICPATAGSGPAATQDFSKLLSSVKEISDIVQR

PKCβI(h) (human), P05771 = assay: cell-based or functional assay
Chain of PKCβI(h) (human), P05771 (P05771 whole entry): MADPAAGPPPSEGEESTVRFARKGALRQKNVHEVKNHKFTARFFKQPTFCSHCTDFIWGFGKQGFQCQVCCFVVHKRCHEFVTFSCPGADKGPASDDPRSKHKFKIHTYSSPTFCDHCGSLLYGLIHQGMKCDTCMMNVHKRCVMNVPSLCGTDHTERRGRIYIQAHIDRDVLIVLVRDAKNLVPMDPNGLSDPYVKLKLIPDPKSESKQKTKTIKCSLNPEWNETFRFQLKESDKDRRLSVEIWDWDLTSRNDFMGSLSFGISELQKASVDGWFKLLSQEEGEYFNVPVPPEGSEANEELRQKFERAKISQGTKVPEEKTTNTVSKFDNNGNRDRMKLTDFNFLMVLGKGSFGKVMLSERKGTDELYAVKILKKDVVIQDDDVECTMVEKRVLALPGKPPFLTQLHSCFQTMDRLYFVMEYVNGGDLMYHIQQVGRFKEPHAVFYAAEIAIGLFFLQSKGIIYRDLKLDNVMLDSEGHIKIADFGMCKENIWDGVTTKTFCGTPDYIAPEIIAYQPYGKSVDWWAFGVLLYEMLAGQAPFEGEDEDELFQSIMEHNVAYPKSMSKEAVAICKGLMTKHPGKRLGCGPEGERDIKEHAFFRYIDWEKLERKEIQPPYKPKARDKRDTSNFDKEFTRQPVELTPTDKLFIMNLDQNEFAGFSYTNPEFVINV

YARAAARQARAKALARQLGVAA (modifications not checked) [MMI-0100]
% inhibition [1]: < 30% | % inhibition [2]: < 30% | % inhibition [3]: < 30% | % inhibition [4]: < 30% | % inhibition [5]: < 30% | % inhibition [6]: < 30% | % inhibition [7]: < 30% | % inhibition [8]: < 30% | IC50 (kinase activity) (EphA2(h) (human), P29317): 181 µM | IC50 (kinase activity) (LOK(h) (human), O94804): 47.6 µM | IC50 (kinase activity) (Yes(h) (human), P07947): 114 µM | IC50 (kinase activity) [9]: 45.8 µM | IC50 (kinase activity) [10]: 128 µM | IC50 (kinase activity) (DRAK1(h) (human), Q9UEE5): 78.3 µM | IC50 (kinase activity) [11]: 15.8 µM | IC50 (kinase activity) (Fes(h) (human), P07332): 174 µM | IC50 (kinase activity) (FGFR2(h) (human), P21802): 172 µM | IC50 (kinase activity) [12]: 12.1 µM | IC50 (kinase activity) (DMPK(h) (human), Q09013): 34.1 µM | IC50 (kinase activity) (Pim-1(h) (human), P11309): 71.7 µM | IC50 (kinase activity) (TrkB(h) (human), Q16620): 4.6 µM | IC50 (kinase activity) (Fgr(h) (human), P09769): 141 µM | IC50 (kinase activity) (MSK1(h) (human), O75582): 102 µM | IC50 (kinase activity) (CaMKI(h) (human), Q14012): 11.7 µM

KAFAKLAARLYRKALARQLGVAA [MMI-0400]
% activity, 100 µM (CK1δ(h) (human), P48730): 93% | % activity, 100 µM [9]: 17% | % activity, 100 µM [13]: 2% | % activity, 100 µM (PKG1α(h) (human), Q13976): 58% | % activity, 100 µM [14]: 105% | % activity, 100 µM (PKCβI(h) (human), P05771): 78%

FAKLAARLYRKALARQLGVAA [MMI-0300]
% activity, 100 µM (CK1δ(h) (human), P48730): 92% | % activity, 100 µM [9]: 10% | % activity, 100 µM [13]: 1% | % activity, 100 µM (PKG1α(h) (human), Q13976): 64% | % activity, 100 µM [14]: 101% | % activity, 100 µM (PKCβI(h) (human), P05771): 78%
